Source: paper PMC7284552

System: T1, A1S_0316 (putative IclR-type transcription factor) (Acinetobacter baumannii ATCC 17978), ORF:5d858888
T1 sequence: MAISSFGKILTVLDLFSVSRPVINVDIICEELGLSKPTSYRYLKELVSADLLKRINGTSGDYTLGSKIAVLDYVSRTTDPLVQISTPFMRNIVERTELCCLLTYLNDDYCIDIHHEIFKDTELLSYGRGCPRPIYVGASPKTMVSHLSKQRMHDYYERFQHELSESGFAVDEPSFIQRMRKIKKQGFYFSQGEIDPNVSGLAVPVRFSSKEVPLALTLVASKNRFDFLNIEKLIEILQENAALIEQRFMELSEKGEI
Assay: competition
Conditions: EMSA: 5 min at 37 C, 5% native PAGE (40:1), 100 V 1.5 h; binding buffer, salt and pH not stated

For “GGCAAGCGAAACAAAGAAGTTGTTCATATTTGCTAGTTGGGTAAAAAATTACCGAATTACAACGGAAATTGTAAGTAATTTTGTCAATAATTTACTTGATTAAAATTATCAAGCACTTGGAAAGTCTATCAAGTGTTTGTATGATTCAAATGTGAATAGCTTAAAAATAATACTGGGGTAAAAAAATATCTCAGGGGCCAATAAATTTAGGCTGAGCTTGAACAACAATTGTTATCTCTGGAGGATATCCATGAAATTGAGTCGTATTGCACTTGCTACTATGCTTGTTGCTGCTCCATT (double strand) [AbOmpA promoter (AbOmpAp), -231 to +100]”, the binding was “binds”.
